Data on 4 molecules can be found in paper PMC11358308 (2024).

One may read the Kd as the constant that tells how readily two partners part at equilibrium. Lower therefore signals a tighter complex.

For test [1], the target named is T1, human B-cell maturation antigen (BCMA), extracellular domain (human, UniProt Q02223 1-54).
T1 chain: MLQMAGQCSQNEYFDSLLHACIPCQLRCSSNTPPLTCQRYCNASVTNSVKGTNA
The test can be described thus: SPR. (Surface plasmon resonance follows binding to a sensor surface in real time, without labels.)

The next test has as its target cynomolgus BCMA (cynomolgus monkey). The test can be described thus: SPR.

Chain of cynomolgus BCMA (cynomolgus monkey) (chain, as listed by the source): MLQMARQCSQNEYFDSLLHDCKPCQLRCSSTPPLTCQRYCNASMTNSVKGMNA

B1: J22.9-FSY, humanized and CDR-optimized IgG (antibody, V domains shown)
VH: EVQLVESGGGLVQPGGSLRLSCAASGFTFSRYWFSWVRQAPGKGLVWVGEINPSSSTINYAPSLKDKFTISRDNAKNTLYLQMNSLRAEDTAVYYCASLYYDYGDAYDYWGQGTLVTVSS
VL: EIVMTQSPATLSVSPGERATLSCKASQSVESNVAWYQQKPGQAPRALIYSASLRFSGIPARFSGSGSGTEFTLTISSLQSEDFAVYYCQQYNNYPLTFGAGTKLELK
With B1, the figures for the Kd (in test [1]; in the test with cynomolgus BCMA) were 2.2 nM and 20 nM, respectively.

B2: J22.9-ISY, humanized and CDR-optimized IgG (antibody, V domains shown)
VH: EVQLVESGGGLVQPGGSLRLSCAASGFTFSRYWISWVRQAPGKGLVWVGEINPSSSTINYAPSLKDKFTISRDNAKNTLYLQMNSLRAEDTAVYYCASLYYDYGDAYDYWGQGTLVTVSS
VL: EIVMTQSPATLSVSPGERATLSCKASQSVESNVAWYQQKPGQAPRALIYSASLRFSGIPARFSGSGSGTEFTLTISSLQSEDFAVYYCQQYNNYPLTFGAGTKLELK
As to B2, the Kd in test [1] amounted to 2 nM; in the test with cynomolgus BCMA, 17 nM.

B3: J22.9-H, humanized IgG (all humanizing substitutions in VH and VL except A46L in VL) (antibody, V domains shown)
VH: EVQLVESGGGLVQPGGSLRLSCAASGFTFSRYWMSWVRQAPGKGLVWVGEINPDSSTINYAPSLKDKFTISRDNAKNTLYLQMNSLRAEDTAVYYCASLYYDYGDAMDYWGQGTLVTVSS
VL: EIVMTQSPATLSVSPGERATLSCKASQSVDSNVAWYQQKPGQAPRALIYSASLRFSGIPARFSGSGSGTEFTLTISSLQSEDFAVYYCQQYNNYPLTFGAGTKLELK
The molecule B3 gave a Kd with cynomolgus BCMA of 200 nM. That is a sub-micromolar value.

B4: J22.9-xi, chimaeric mouse/human IgG (antibody, V domains shown)
VH: QVQLQQSGGGLVQPGGSLKLSCAASGIDFSRYWMSWVRRAPGKGLEWIGEINPDSSTINYAPSLKDKFIISRDNAKNTLYLQMSKVRSEDTALYYCASLYYDYGDAMDYWGQGTSVTVSS
VL: DIVMTQSQRFMTTSVGDRVSVTCKASQSVDSNVAWYQQKPRQSPKALIFSASLRFSGVPARFTGSGSGTDFTLTISNLQSEDLAEYFCQQYNNYPLTFGAGTKLELK
In the test with cynomolgus BCMA, B4 yielded a Kd of 2.7 nM.
